Experimental data: the Human Domainome abundance scans (Beltran et al. 2025)

B1: Transcription elongation regulator 1-like protein, residues 448 to 504; numbered along this chain, Q5VWI1 (parent)
chain: LPLEERVTHFRDMLLERGVSAFSTWEKELHKIVFDPRYLLLNSEERKQIFEQFVKTR

Variants of: B1
Experiment: abundance fitness (aPCA) (normalised: wild type 0, dead -1); higher = more abundant; growth selection in yeast, the domain comes from the species named
Conditions: Homo sapiens

Abundance fitness of substitutions, site by site:
E44: L -0.211 | P -0.606 | G -0.211 | F -0.21 | S -0.187 | M 0.253 | V -0.159 | Y -0.42 | W -0.22 | Q -0.143 | R -0.201 | D 0.27 | T -0.105 | K 0.094 | C -0.195 | H -0.415 | I 0.179
W25: N -0.557 | V -0.668 | S -0.55 | D -0.986 | Q -0.751 | L -0.795 | R -0.531 | I -0.393 | E -0.713 | Y 0.169 | A -0.589 | M -0.154 | G -0.898
D35: W -0.861 | T -0.892 | E -0.667 | A -1.02 | H -0.354 | R -0.436 | S -0.944 | P -0.722 | V -0.836 | G -0.757
I32: S -0.916 | W -0.514 | T -0.81 | D -0.852 | R -0.538 | E -0.633 | P -0.418 | Y 0.058 | M -0.466 | V 0.086 | F -0.433 | A -0.909 | C -0.484 | K -0.847 | L -0.494 | G -0.764
A21: P -0.114 | Y -0.482 | V -0.22 | G -0.365 | R -0.364 | S -0.303 | Q -0.245 | W -0.594 | T -0.399 | K -0.286
L41: M -0.335 | D -1.04 | F -0.583 | K -1.11 | G -0.569 | I -0.409 | T -0.592 | V -0.226 | E -0.781 | C -0.734 | Q -0.473 | Y -0.755 | H -0.543 | P -0.917 | N -0.755 | R -0.616 | A -0.681
S23: G -0.353 | R -0.811
F22: G 0.04 | M -0.431 | V -0.439 | Q 0.199 | L -0.045 | S 0.063 | D 0.292 | Y -0.031 | P -0.48 | R -0.155 | T 0.048 | N 0.471 | I -0.797 | C 0.078
N42: Q 0.013 | E -0.023 | A -0.571 | C -0.437 | P -0.533 | L -0.529 | M -0.687 | W -0.733 | V -0.924 | S 0.034 | D 0.035 | T -0.325 | K -0.109
P36: E -0.409 | K 0.011 | A -0.42 | W -0.011 | S -0.488 | G -0.514 | L -0.714 | V -0.717 | T -0.604 | R -0.504 | C -0.869 | D -0.584
E28: C -0.542 | Q -0.641 | V -0.71 | Y -0.946 | A -0.822 | D -0.673 | R -0.576 | I -1.02 | S -0.659 | L -0.446 | M -1.04 | G -0.701 | F -0.796
H30: C -0.569 | N -0.547 | W -0.138 | K -0.403 | L -0.544 | A -0.714 | I -0.439 | M -0.515 | G -0.505 | T -0.492 | R -0.295 | P 0.098 | Y -0.337 | S -0.585 | D -0.235 | V -0.608 | E -0.276
E45: G -0.427 | T -0.515 | M -0.107 | S -0.514 | W -0.483 | R -0.434 | P -0.791 | V -0.858 | I -0.242 | H -0.204 | Y -0.557 | L -0.067 | Q -0.004
